According to patent US20210154269A1:

Columns and labels:
[1] = target: human CD47 (human) (UniProt Q08722); assay: in vitro receptor occupancy assay, at ~1 µM
[2] = target: human CD47 (human) (UniProt Q08722); assay: cell-based or functional assay
[3] = target: human CD47 (human) (UniProt Q08722); assay: affinity for human CD47; method not stated

Row | Substance | receptor occupancy [1] [%] | EC50, PathHunter SIRPα Signaling Bioassay [2] [µg/mL] | inhibition of SIRPα signaling at 1 nM [2] [%] | Kd [3] [nM]
1 | TTI-621 (from UniProt P78324 31-149) (Fc fusion) | 40 | > 0.15 | < 10 | 500
2 | TTI-622 (from UniProt P78324 31-149) (Fc fusion) | 40 | > 0.15 | < 10 | 500
